# Experiment: soluble on expression in E. coli; label from the status in PepcDB or PDB records
row,Sequence,soluble on expression in E. coli
1,MGSDKIHHHHHHMKCSQCNKKLCYTGKDCKKDITQKIIEEYKKEENLKIAEVSAYIEATYYMKKTRLEEIIEFCKLMEYKKIGIAFCIGLENEAKILAKILSKHFEVYSVCCKVCGIDKDVFKFKKINKGEKEAMCNPIGQAEILNEIGTDLNIIVGLCIGHDILFQKYSKAPTTTFIVKDRVLSHNTAGAIYTKYYLKKLLEGK,not soluble
2,MAKTKDKSIFVSSVDSDSDIEEIIMPPKPPVEVIQLDDSDDECQDICKPIYNKKVHKDPIVRVSYRQRIPESYFPGISTSLINVQREHNNRSKYDTWGSNSCSEPRISISNIERLEKPSYHEARRVPVFERLERSREISNGRNNQNPIRFNHKFVPPINRQTPLFNNQQLLVNVPFNEHHPTFLEPRPFYRSNVNEYNAGGLNRGSFRKMGRLNMEIVRDNDDFEEHFLAPNFPAKSASIDRRVDDSLSSNSYLRSGMIMASSERLEDPRFSGRLPVFARQINNQEINNDNFYQNSICYNHNNYPSNLESRVSFPFEARHHDADGLNRGRYQVMEHVNMGIMRNSEDFEDYDITQTDQDNHFYNDKDSGKHHRHRHRSKNNKKHKKHYDRNESGNSSECREEDDYEISNPSEKRHERKKRQRSSHRKESACVDEDNYILDEDRFYQQESDEYHNSLEMEREYEHGMDVGVKKEHSYKCDDIARNARKRARLTDDDMARREELFKEWSYSKEIVDGVTQLFGGPPRESERHQKKQKELVFEADRTAMHALSIRSGALVKARLLEIHYATGCHLIFLEEVKRGGYTYVELKGDPEHIKNAQKMIDDMVIDEHYIHDGRESIVYFYNAPHELRNTRGFDLNCRSIEKYCGIIIEKMREVFGIGGYVSTAPLKLTGSVNSIHMARETMQSKTKRFLDEEKFKETVEHCTPISFYRKIIGRCGENLKTIEKVTRTAIVFKRSFDNNEACFSIRGRTDNIKQAIEKIEEITHENQPADDDPGIFQVRVPENMVARLIGRHGVEINRIRSESKAKCYLNAIRGNLDDKFMVCSGGVEEAAYAAYLTKVKIGIIDPKVIQFNSDDFNNLSKVKPMEDPRLVMLKKRYAERKECK,soluble
3,MARVAIVGTGPTGIYTFFNLIQTDPSHHITLFERGEKAGIGLPYSPEAASKSMLANIASIEIPPIEATYLDWLKGQPDAKLRAYGLDRAELDDRQFTPRLLLGEYFRDQLLSLLDRHRARTEVLETTEVTDVIARNDALFLRAAEREFGPFDRVILATGHVFPDADEATRSYFPSPWSGLIQAEVPPVSVGIMGTSLSSIDAAMAVANQHGRFRRHGEELTFEPATEGLHLTLMSWSGVLPEADFWCPIPYEPLQVMTDDAVAQCAAQADPLDRVFALLQEEIAQADPAYADRIGLATLTADTFGDAYFAAREAQDPFRWARRNLEEVEHNKAHQITVPWRYALLRMHEKVETLVPHLGDADRKRFDGGLKKVFVDNYAAVPSESIRRLLALRDAGLLSVLALGEDYELKREPDRTVIHAKGKTHVFPVFIDARGQKPMESRDMPFPSLRRALMGSKQDIPELDADFALVGVPDYDRHAHLAAIPYLMHDRPFVQGITASAEIGATIARGISQAVGDRAAQGGRRSSAPVVATGLEHHHHHH,soluble
4,MELVVKSVAAASVKTATLVIPVGENRKLGAVAKAVDLASEGAISAVLKRGDLAGKPGQTLLLQNLQGLKAERVLLVGSGKDEALGDRTWRKLVASVAGVLKGLNGADAVLALDDVAVNNRDAHYGKYRLLAETLLDGEYVFDRFKSQKVEPRALKKVTLLADKAGQAEVERAVKHASAIATGMAFTRDLGNLPPNLCHPSFLAEQAKELGKAHKALKVEVLDEKKIKDLGMGAFYAVGQGSDQPPRLIVLNYQGGKKADKPFVLVGKGITFDTGGISLKPGAGMDEMKYDMCGAASVFGTLRAVLELQLPVNLVCLLACAENMPSGGATRPGDIVTTMSGQTVEILNTDAEGRLVLCDTLTYAERFKPQAVIDIATLTGACIVALGSHTTGLMGNNDDLVGQLLDAGKRADDRAWQLPLFDEYQEQLDSPFADMGNIGGPKAGTITAGCFLSRFAKAYNWAHMDIAGTAWISGGKDKGATGRPVPLLTQYLLDRAGA,soluble
5,MGSDKIHHHHHHMNAQEERSRDWVSIRRPFAKAGLETMTARYIQQSFKPHAHDEYVIGIIEGGVHSVWCRGIHHNMPSGTVVTMHPGDVHYGNAAIAEGWKQRMIYISENEIGKFISDIAGGDKFLLPDFKQTFHDRPDLAHSFAQFHEVLHSSPLALARDVALDSIMRVTIGALSPDFVKAKDAKQPSGRIADAVEFLHNRIEDDVTLDELCDVAGLRRRQTIEAFKRCTGLPPHAYHVIQKVKAVKTMLRDGFSATEAAARAGFADQSHMTRHFVGVVGMTPGAYALDCQKKY,not soluble
6,MSHLDEVIARVDAAIEESVIAHMNELLIALSDDAELSREDRYTQQQRLRTAIAHHGRKHKEDMEARHEQLTKGGTIL,soluble
7,MAHHHHHHMLSDNDLTFHIPSAGLRRMDAWTAPNPSVFSHLHLVGNPDWMSSFSASPQVAAARPALAPPAPVAIEPSAPRPLAAPAAIDAPAPATKKSFLSMFYRGSSNTVSSSVMPPKTSSASFAPMSAPPKALDAFDTPMQRALPVDAQLSVEHLSKLDAVDATISAAPRREPPHPMALGSDTWNALSSVPVPAKTAAGSARLLAPPASIDAVFSRDSKPLWSDLSFASRFRSTAPTLEAFRNAPPAPILSTPPRSPQHQATSSTATVATAFIPVPPKPVTASPLRDTAVSSVEAAAPATMPAARREPRAMAHPLVPVGEDAPAVVTPLLKPVQEIPMVSSKSANLAPSTVNATPPVWGPEPLSLASREPEPSALALPTEFAKSISRPTMQEAQRDEARAAANVRNFISTLFSGSGSDEMDSSTAGNRKADGFNALEFVTNRRGAQAKASQPVDYSTFFNTSLFEDDHDEDSEEGLEKLRRVVLMVMQSAKNSEGTCVSQPTSQSCRRGGGVDATGVAALTTFPSKYTEFSASYQTANNNNADDNEWMQFAR,not soluble
8,MNQLIFDFAAHDYPSFDKFLGTENAELVYVLRHKHGQFIYVWGEEGAGKSHLLQAWVAQALEAGKNAAYIDAASMPLTDAAFEAEYLAVDQVEKLGNEEQALLFSIFNRFRNSGKGFLLLGSEYTPQQLVIREDLRTRMAYCLVYEVKPLTDQEKIDALASMAAARQVTVDSEIFEYLLKHWRRDMDSLMMMLDTLDNYAVTMGKRITLPLLRQLLKQQETQLEHHHHHH,soluble
9,MAHHHHHHMIDEKSKMYSKNDEFNVKKEMDMNLKCDNVNLDIWNTSFLNNETLNEDIFIHIGNKLLKMYYTTNHNIPSETLYSLLYEMKNGYNNVPYHNSIHAAMVTHHCNVLVSNLNTANILRDNELGALFVASLGHDIGHFGRTNIFLKNCCNFLSIIYNDKSILENYHCSYLFNILLKDENNIFKNEDPKCLLALRQQIIELILATDMSKHIKILAQFRIKSIKIKSYIEKNIILCLKMIIKAADLSHNCVDWSEHYQWVKRLVNEFYYEGDELFQMGYKINPLFDRNCHNNFIQIQRTFLKELVYPLIISLKTLDNTSITQDMINNVKRNYSKWTKIEKCQIKKKKYLNELLCNIPDNWARVYYPNLNIY,not soluble
10,MRMIVGHGIDIEELASIESAVTRHEGFAKRVLTALEMERFTSLKGRRQIEYLAGRWSAKEAFSKAMGTGISKLGFQDLEVLNNERGAPYFSQAPFSGKIWLSISHTDQFVTASVILEENHES,soluble
11,MKKVAIIGAGIVGATAAYYLSKEKDIAVTVFDDGFGQATKAAAGIICPWFSKRRHKAWYRLARLGADFYQTLLSDLKRDACKVDFYEQSGAFLLKNKAESLDELFEIGQKRKSQSPLIGHLEIQKRADLTGLLADLVGFDRCIYASGAARVEGASLTEALLNASHAKMVNKKVGLQVLSDGNYRVNGKKYTAVLLACGAWLPQILEPLGYKIDIRPQKGQLRDYFFNSEDTEKFPVIMPEGEVDIIPFAHGKVSVGASHENDHGFDLQIDNSVLDKMEKEAQTYFPKLKEATSKNERVGTRAYTRDFAPFFGRVTGLANVYAASGLGSSGLTTGPLIGNQLVKMLLDKELDIQASDYSPDKYIVKNSLEHHHHHH,not soluble
12,MSLSSGEHEASRVLRERDYRWEGTEEEAYKAEGTHFSGARRQTLVGRPAGQEAPAFETRYFEVEPGGYTTLERHEHTHVVMVVRGHAEVVLDDRVEPLTPLDCVYIAPHAWHQIHATGANEPLGFLCIVDSDRDRPQRPDADDLARMCADPAVARRIRTEGHHHHHH,soluble
13,MGSDKIHHHHHHKKAVINDSNTPLHLLQPAYQGTYGDLTPEQVKKDIDRVFAYIDKETPARVVDKNTGKVITDYTAMGDEAQLERGAFRLASYEWGVTYSALIAAAETTGDKRYTDYVQNRFRFLAEVAPHFKRVYEEKGKTDSQLLQILTPHALDDAGAVCTAMIKLRLKDESLPVDGLIQNYFDFIINKEYRLADGTFARNRPQRNTLWLDDMFMGIPAVAQMSRYDKEAKNKYLAEAVKQFLQFADRMFIPEKGLYRHGWVESSTDHPAFCWARANGWALLTACELLDVLPEDYPQRPKVMDYFRAHVRGVTALQSGEGFWHQLLDCNDSYLETSATAIYVYCLAHAINKGWIDAIAYGPVAQLGWHAVAGKINEEGQVEGTCVGTGMAFDPAFYYYRPVNVYAAHGYGPVLWAGAEMIRLLNTQHPQMNDSAVQYYQEKQKTTAPIFAVDSE,not soluble
14,MEKTPAETTAVSAGNVPRDSIPCITNVSADTRGRTRPSRPATVPQRRPARIGHFRRRSASLSFLDWPDGSVTEGVRTTSASVAASAARFDEIRRRRQSINDEMKERTLEDALAVELVNETFRCSVTSDARKDLQKLVRRVSGTVLRLSWPNGWFFTYCDLLRVGYFGHLNIKGLEKTFLCCDKFLPGLEHHHHHH,not soluble
15,MGSDKIHHHHHHASEPVSVASTPETDEIDQLFDDMQLDGIVSYTAFRQAVTGYQKIEQKSKSIMTLIDFSKPSTEKRLYVLDMKNKKLLYTSVVSHGKNSGGNYATSFSNKNGSYKSSLGFYLTENTYQGRNGYSLVLNGLEKGINDQAKQRAIVMHGAAYANPNITASAGRLGRSLGCPALPQALAKPIIDTIKKGSVLFIYANNKDYLANSTFLSPRQTEYLSWAQPAN,not soluble
16,MIIPEYGRTLTPEEWRPVVDEMLEATHIIFTTHENSDGDGLGSQVALALALKALGKEVAIFNPTEVPPNYLFLKELHEINLFRDRDEESMQEFFLADLLVVLDANLHDRIGRLWPHVEFARQMSRLKVLCIDHHLEPEDFADITVCETYASSTGELVCDLVTALELRTGQQLFTPEVASALYAAIMTDTGSFRFPKTTPYTYRLAGMLVEKGADPELVYDRIYNAL,not soluble
17,MRGLAVLVLLVFAVQVAAAEDFRPVVFVHGLAGSAGQFESQGMRFAANGYPAEYVKTFEYDTISWALVVETDMLFSGLGSEFGLNISQIIDPETLDKILSKSRERLIDETFSRLDRVIDEALAESGADKVDLVGHSMGTFFLVRYVNSSPERAAKVAHLILLDGVWGVDAPEGIPTLAVFGNPKALPALGLPEEKVVYNATNVYFNNMTHVQLCTSPETFAVMFEFINGYKPATTDIVPQDGDYVKVKGKFLAFATNGDVSGWLSIYPIDENGKRLTRLPVKFMRVKGDFEVRLRKGQLYEFQFRKDFSPIIYHYYRAPFVRDDLWARFLVSKPPLDVELLILPERLSPAAKETSGLLLIRYKEMIGEYDEEIGGVDEVYVNGVNVCTERICPIERAVNGLWVFDRGADGKSDLDREVVRYSIMPFMSAADLVVPAEGTISIAVKSRTGGEESFTIPAWSADRHSIIVQFSDYI,not soluble
18,MGSDKIHHHHHHMVKELDLQSVQGTMLIPLWGRAYGSEKNKNILDDTEAIRIIKEFDFDFSTIENTFGEYGCITYITRARKIDDTIKQFITKHPNATIVNIGSGLDTTFSRIDNGTIHWYNLDLPDAISFRKTLIEDTSRNTSIAKSFFDTSWFDDIKYDPNDGILFISAGVFYYFKEEDLKKIVVAMSKRFPGGELYFDAESKFALNLSNATVKKSGNNGALMYFYINNPKTLEKWSPNIKVLSCSPFFKNIPTNKGWDGSTRIMIRIVNLIKMLKFVHLRFEK,not soluble
